Results published in US20230257453A1 (PROVIVA THERAPEUTICS HONG KONG, published 2023).
Changes are numbered by the printed parent chain. Numbers in names are those of the source. One block for each binder: values may come before it.

Target: T1, denatured human collagen type III (human, UniProt P02461 154-1221, limits assumed)
T1 construct: Bought human collagen III (ab7535, Abcam), denatured at 99 C for 15 minutes and then kept on ice for 5 minutes; also called denatured human collagen III
T1 sequence: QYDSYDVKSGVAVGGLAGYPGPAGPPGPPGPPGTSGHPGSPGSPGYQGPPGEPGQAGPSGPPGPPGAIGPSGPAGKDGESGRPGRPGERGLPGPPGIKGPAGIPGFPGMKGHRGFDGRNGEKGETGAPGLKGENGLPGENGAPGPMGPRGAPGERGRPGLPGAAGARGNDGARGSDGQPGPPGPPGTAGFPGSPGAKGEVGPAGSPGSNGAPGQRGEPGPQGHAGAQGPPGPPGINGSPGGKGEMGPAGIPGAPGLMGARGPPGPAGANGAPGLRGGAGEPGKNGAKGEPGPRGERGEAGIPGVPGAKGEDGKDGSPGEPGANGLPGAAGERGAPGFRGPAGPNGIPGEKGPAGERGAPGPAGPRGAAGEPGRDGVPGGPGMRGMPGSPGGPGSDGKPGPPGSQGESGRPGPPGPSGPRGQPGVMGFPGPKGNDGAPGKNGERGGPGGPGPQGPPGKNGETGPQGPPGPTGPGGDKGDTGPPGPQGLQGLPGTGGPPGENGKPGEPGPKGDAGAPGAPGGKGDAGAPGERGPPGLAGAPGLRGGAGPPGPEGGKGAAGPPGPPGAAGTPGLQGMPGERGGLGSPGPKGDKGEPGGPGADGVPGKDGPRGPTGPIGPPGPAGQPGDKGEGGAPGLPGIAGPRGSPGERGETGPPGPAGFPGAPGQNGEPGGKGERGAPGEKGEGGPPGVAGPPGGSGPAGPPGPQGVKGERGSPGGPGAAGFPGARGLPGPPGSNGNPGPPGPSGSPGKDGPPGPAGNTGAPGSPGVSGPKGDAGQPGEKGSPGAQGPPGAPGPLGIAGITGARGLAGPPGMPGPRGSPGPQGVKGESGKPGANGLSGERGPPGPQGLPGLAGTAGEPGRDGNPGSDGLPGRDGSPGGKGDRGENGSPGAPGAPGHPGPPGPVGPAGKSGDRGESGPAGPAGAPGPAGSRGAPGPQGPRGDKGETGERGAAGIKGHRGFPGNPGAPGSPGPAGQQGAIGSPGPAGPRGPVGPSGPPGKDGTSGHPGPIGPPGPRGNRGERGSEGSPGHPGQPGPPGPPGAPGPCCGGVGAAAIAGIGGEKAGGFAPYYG
Assay: ELISA, denatured collagen coated on plate, anti-human IgG peroxidase detection
Method: ELISA analysis. The binding activity and specificity of purified antibodies were determined by ELISA. Human collagens I (ab7533, Abcam), III (ab7535, Abcam), IV (ab7536, Abcam), an V (ab7537, Abcam), and mouse collagens I (NBP2-62423, NOVUS) and IV (3410-010-02, R&D) were used in ELISA analysis. “Denatured” collagen samples were prepared by incubation of collagens samples at 99° C. for 15 minutes followed by incubation on ice for 5 minutes Microtiter plates were coated with native or denatured collagen protein overnight at 4° C. The next day, plates were washed with PBS and blocked with 3% non-fat dry milk in PBS or 1% BSA. Serially diluted antibodies were added for binding to the coated antigen. Bound antibodies were detected with peroxidase-conjugated anti-human IgG secondary antibody (Jackson ImmunoResearch).

- binding result: binds
B1: P27152798 (antibody, human IgG1, kappa, L234A L235A, V domains shown)
VH: QVTLKESGPALVKPTQTLTLTCTFSGFSLSTPGMGVWWIRQPPGKALEWLADIWWDDNKYTNPSLKSRLTISKDTSKNQVVLTMTNMDPVDTATYYCARRANYGNPYYAQDYWGQGTTVTVSS
VL: DIVMTQTPLSLPVTPGEPASISCRSSQSIVHSNANTYLEWYLQKPGQSPQLLIYKVSNRFSGVPDRFSGSGSGTDFTLKISRVEAEDVGVYYCFQGSHVPWTFGQGTKVEIKR
notes: also called VH chain D3 / VL chain B7A

- binding result: binds
B2: P27152716 (antibody, human IgG1, kappa, L234A L235A, V domains shown)
VH: B1 VH
VL: B1 VL with H31S, N33W, A34G
notes: produced by transient transfection in Expi293 cells and purified on MabSelect SuRe; also called VH chain D3 / VL chain D3

- binding result: binds
B3: P27122713 (antibody, human IgG1, kappa, L234A L235A, V domains shown)
VH: B1 VH with P32S, W37G, T61A
VL: B1 VL with A34G
notes: produced by transient transfection in Expi293 cells and purified on MabSelect SuRe; also called VH chain B7 / VL chain B7
